Source: patent US20070086998A1

Experiments:
[1] = target: HLA-DR as expressed on the tumor cell line; assay: cell-based or functional assay
[2] = target: HLA-DR on LG-2 cells (human); assay: cell-based or functional assay

L243 (antibody), sequence (VH): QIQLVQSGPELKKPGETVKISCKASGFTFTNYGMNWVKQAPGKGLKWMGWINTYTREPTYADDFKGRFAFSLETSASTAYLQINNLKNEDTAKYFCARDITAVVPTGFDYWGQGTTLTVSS
L243 (antibody), sequence (VL): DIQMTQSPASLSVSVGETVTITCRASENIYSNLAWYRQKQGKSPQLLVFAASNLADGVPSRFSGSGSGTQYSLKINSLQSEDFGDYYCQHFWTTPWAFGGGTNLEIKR

Question: L243 (antibody) was tested. Which % Killing by mAb; ARH-77 (DR 12); 200 nM, 4 h [1] did it give?
Answer: The % Killing by mAb; ARH-77 (DR 12); 200 nM, 4 h was 88%.

Question: What about the % Killing by mAb; BJAB (DR 12,13); 200 nM, 4 h [1] of the same substance?
Answer: The % Killing by mAb; BJAB (DR 12,13); 200 nM, 4 h was 53%.

Question: And the % Killing by mAb; BONNA-12; 200 nM, 4 h [1]?
Answer: Its % Killing by mAb; BONNA-12; 200 nM, 4 h is 92%.

Question: What about the % Killing by mAb; DOHH-2 (DR 1,2); 200 nM, 4 h [1] of the same substance?
Answer: Its % Killing by mAb; DOHH-2 (DR 1,2); 200 nM, 4 h is 29%.

Question: What about the % Killing by mAb; EOL-1; 200 nM, 4 h [1] of the same substance?
Answer: The % Killing by mAb; EOL-1; 200 nM, 4 h was 22%.

Question: And the % Killing by mAb; GRANTA-519 (DR 2,11); 200 nM, 4 h [1]?
Answer: Its % Killing by mAb; GRANTA-519 (DR 2,11); 200 nM, 4 h is 83%.

Question: What about the % Killing by mAb; HC-1; 200 nM, 4 h [1] of the same substance?
Answer: The % Killing by mAb; HC-1; 200 nM, 4 h was 88%.

Question: What about the % Killing by mAb; HD-MY-Z; 200 nM, 4 h [1] of the same substance?
Answer: The % Killing by mAb; HD-MY-Z; 200 nM, 4 h was 35%.

Question: And the % Killing by mAb; HDLM-2; 200 nM, 4 h [1]?
Answer: The % Killing by mAb; HDLM-2; 200 nM, 4 h was 77%.

Question: And the % Killing by mAb; KARPAS-299 (DR 1,2); 200 nM, 4 h [1]?
Answer: Its % Killing by mAb; KARPAS-299 (DR 1,2); 200 nM, 4 h is 78%.

Question: And the % Killing by mAb; KARPAS-422 (DR 2,4); 200 nM, 4 h [1]?
Answer: The % Killing by mAb; KARPAS-422 (DR 2,4); 200 nM, 4 h was 25%.

Question: And the % Killing by mAb; KM-H2; 200 nM, 4 h [1]?
Answer: Its % Killing by mAb; KM-H2; 200 nM, 4 h is 81%.

Question: And the % Killing by mAb; L1236; 200 nM, 4 h [1]?
Answer: Its % Killing by mAb; L1236; 200 nM, 4 h is 52%.

Question: What about the % Killing by mAb; L-363; 200 nM, 4 h [1] of the same substance?
Answer: Its % Killing by mAb; L-363; 200 nM, 4 h is 6%.

Question: What about the % Killing by mAb; L-428 (DR 12); 200 nM, 4 h [1] of the same substance?
Answer: The % Killing by mAb; L-428 (DR 12); 200 nM, 4 h was 82%.

Question: And the % Killing by mAb; LP-1; 200 nM, 4 h [1]?
Answer: Its % Killing by mAb; LP-1; 200 nM, 4 h is 12%.

Question: And the % Killing by mAb; MHH-CALL-4 (DR 1,2); 200 nM, 4 h [1]?
Answer: The % Killing by mAb; MHH-CALL-4 (DR 1,2); 200 nM, 4 h was 35%.

Question: What about the % Killing by mAb; MHH-PREB-1; 200 nM, 4 h [1] of the same substance?
Answer: The % Killing by mAb; MHH-PREB-1; 200 nM, 4 h was 3%.

Question: And the % Killing by mAb; MN-60 (DR 10,13); 200 nM, 4 h [1]?
Answer: The % Killing by mAb; MN-60 (DR 10,13); 200 nM, 4 h was 46%.

Question: What about the % Killing by mAb; NALM-1 (DR 1,4); 200 nM, 4 h [1] of the same substance?
Answer: Its % Killing by mAb; NALM-1 (DR 1,4); 200 nM, 4 h is 44%.

Question: And the % Killing by mAb; RAJI (DR 10,17); 200 nM, 4 h [1]?
Answer: The % Killing by mAb; RAJI (DR 10,17); 200 nM, 4 h was 69%.

Question: And the % Killing by mAb; RPMI-8226; 200 nM, 4 h [1]?
Answer: Its % Killing by mAb; RPMI-8226; 200 nM, 4 h is 6%.

Question: What about the % Killing by mAb; SR-786 (DR 1,2); 200 nM, 4 h [1] of the same substance?
Answer: The % Killing by mAb; SR-786 (DR 1,2); 200 nM, 4 h was 3%.

Question: And the % Killing by mAb; LG-2 (DR 1,1); 200 nM, 4 h [2]?
Answer: Its % Killing by mAb; LG-2 (DR 1,1); 200 nM, 4 h is 79%.
